# T1: Sa2YefM in heterohexamer;Sa2YoeB in heterohexamer (Staphylococcus aureus …, UniProt Q2FVF7;Q2FVF8 1-85;1-88, |)
# T1 sequence 1: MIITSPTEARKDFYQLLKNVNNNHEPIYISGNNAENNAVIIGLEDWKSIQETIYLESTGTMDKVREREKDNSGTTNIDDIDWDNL
# T1 sequence 2: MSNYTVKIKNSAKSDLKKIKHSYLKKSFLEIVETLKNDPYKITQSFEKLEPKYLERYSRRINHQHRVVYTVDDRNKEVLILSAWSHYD
# B1: promoter mutant1 (core GTAC mutated) (dsDNA)
# DNA 1: TTGACTGCATCAAGTGCTGCAGCTAT
# DNA 2: ATAGCTGCAGCACTTGATGCAGTCAA
# B2: Sa2YefM antitoxin (natural protein)
# chain: T1 sequence 1
# B3: promoter mutant2 (flanking mutated) (dsDNA)
# DNA 1: TTGTTGTACAAAAGTTTGTACAATAT
# DNA 2: ATATTGTACAAACTTTTGTACAACAA
# Key:
# [1] = molecular target: T1, Sa2YefM in heterohexamer;Sa2YoeB in …; test: ITC
# crystal structure = molecular target: the molecule itself; test: crystal structure
Binder,binding result [1],stoichiometry N (crystal structure)
B1,no binding,
B2,,2
B3,no binding,
